From publication PMC2720809 (Nature, 2009)

What was measured:
[1] = biological target: T1, zebrafish P2X4.1 receptor (zfP2X4) (Danio rerio, UniProt F8W463); experiment: whole-cell patch clamp of transfected tsA201 cells; assay type: cell-based
T1 sequence (F8W463 1-389): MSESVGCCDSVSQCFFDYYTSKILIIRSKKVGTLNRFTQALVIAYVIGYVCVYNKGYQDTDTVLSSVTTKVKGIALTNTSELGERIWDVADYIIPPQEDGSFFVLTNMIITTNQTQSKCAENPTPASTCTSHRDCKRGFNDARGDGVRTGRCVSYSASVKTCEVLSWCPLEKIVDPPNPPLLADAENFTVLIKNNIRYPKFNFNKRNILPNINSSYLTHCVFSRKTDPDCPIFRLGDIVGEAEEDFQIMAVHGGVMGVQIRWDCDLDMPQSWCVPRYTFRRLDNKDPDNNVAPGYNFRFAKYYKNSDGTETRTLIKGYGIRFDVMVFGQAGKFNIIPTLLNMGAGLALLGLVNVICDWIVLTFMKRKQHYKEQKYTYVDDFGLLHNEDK

[2] = biological target: ΔzfP2X4-B (ΔzfP2X4-A with C51F/N78K/N187R) (zebrafish) (UniProt F8W463); experiment: crystal structure
[3] = biological target: ΔzfP2X4-A (zebrafish P2X4.1 receptor with amino- and carboxyl-terminal deletions) (zebrafish) (UniProt F8W463); experiment: crystal structure

Nc1ncnc2c1ncn2[C@@H]1O[C@H](COP(=O)(O)OP(=O)(O)OP(=O)(O)O)[C@@H](O)[C@H]1O [ATP]
EC50 [1]: ~800 µM

ΔzfP2X4-B (ΔzfP2X4-A with C51F/N78K/N187R) (from UniProt F8W463 1-389) (receptor)
stoichiometry N [2]: 3

ΔzfP2X4-A (zebrafish P2X4.1 receptor with amino- and carboxyl-terminal deletions) (from UniProt F8W463 1-389)
stoichiometry N [3]: 3
